Reference: article PMC7402622 (Science (New York, N.y.), 2020)

Key:
[1] = biological target: T1, stabilized SARS-CoV-2 S ectodomain trimer (SARS-CoV-2, Wuhan-Hu-1 (GenBank …, UniProt P0DTC2, stabilised)); experiment: SPR
[2] = biological target: T1, stabilized SARS-CoV-2 S ectodomain …; experiment: cryo-EM structure

Binder | binding result [1] | binding result [2]
H014 humanized monoclonal antibody (IgG) (antibody, V domains shown) VH: EVQLVQSGAEVKKPGATVKISCKVSGYSFSNYYIHWVKQAPGKSLEWIGYIDPFNGGTSDNLKFKGAATLTADTSTDTAYMELSSLRSEDTAVYYCARSEYDPYYVMDYWGQGTTVTVSS VL: IVLTQSPFQSVSPKEKVTITCRASQSISSNLHWYQQKPDQSPKLLIKYASQSISGIPSRFSGSGSGTDFTLTINSLEAEDFGIYFCQQTNFWPYIFGQGTKLEIL | binds | 
H014 Fab fragment (Fab, V domains shown) VH: EVQLVQSGAEVKKPGATVKISCKVSGYSFSNYYIHWVKQAPGKSLEWIGYIDPFNGGTSDNLKFKGAATLTADTSTDTAYMELSSLRSEDTAVYYCARSEYDPYYVMDYWGQGTTVTVSS VL: IVLTQSPFQSVSPKEKVTITCRASQSISSNLHWYQQKPDQSPKLLIKYASQSISGIPSRFSGSGSGTDFTLTINSLEAEDFGIYFCQQTNFWPYIFGQGTKLEIL |  | binds
